Test results published in ChEMBL document CHEMBL2074270, “Transport of amphipathic anions by human multidrug resistance protein 3” (Cancer Res, 2000).

Assays:
Assay type in all cases: functional, cell membranes
Conditions in all cases: Membrane vesicle
[1] = substrate: CN(Cc1cnc2nc(N)nc(N)c2n1)c1ccc(C(=O)N[C@@H](CCC(=O)O)C(=O)O)cc1; test: (§1) TP_TRANSPORTER: uptake in membrane vesicles from MRP3-expressing HEK293 cells
[2] = substrate: N[C@@H](CCC(=O)N[C@H](CSc1ccc([N+](=O)[O-])cc1[N+](=O)[O-])C(=O)NCC(=O)O)C(=O)O; test: as §1
[3] = substrate: CCCCC/C=C\C/C=C\C=C\C=C\[C@@H](SC[C@@H](NC(=O)CC[C@H](N)C(=O)O)C(=O)NCC(=O)O)[C@@H](O)CCCC(=O)O; test: as §1
[4] = substrate: C[C@]12CC[C@@H]3c4ccc(O)cc4CC[C@H]3[C@@H]1CC[C@@H]2O[C@@H]1O[C@H](C(=O)O)[C@@H](O)[C@H](O)[C@H]1O; test: as §1
[5] = substrate: C[C@H](CCC(=O)NCC(=O)O)[C@H]1CC[C@H]2[C@@H]3[C@H](O)C[C@@H]4C[C@H](O)CC[C@]4(C)[C@H]3C[C@H](O)[C@]12C; test: as §1

B1: Multidrug resistance associated protein (Homo sapiens), Q96QA9 (protein)
chain: MDALCGSGELGSKFWDSNLSVHTENPDLTPCFQNSLLAWVPCIYLWVALPCYLLYLRHHCRGYIILSHLSKLKMVLGVLLWCVSWADLFYSFHGLVHGRAPAPVFFVTPLVVGVTMLLATLLIQYERLQGVQSSGVLIIFWFLCVVCAIVPFRSKILLAKAEGEISDPFRFTTFYIHFALVLSALILACFREKPPFFSAKNVDPNPYPETSAGFLSRLFFWWFTKMAIYGYRHPLEEKDLWSLKEEDRSQMVVQQLLEAWRKQEKQTARHKASAAPGKNASGEDEVLLGARPRPRKPSFLKALLATFGSSFLISACFKLIQDLLSFINPQLLSILIRFISNPMAPSWWGFLVAGLMFLCSMMQSLILQHYYHYIFVTGVKFRTGIMGVIYRKALVITNSVKRASTVGEIVNLMSVDAQRFMDLAPFLNLLWSAPLQIILAIYFLWQNLGPSVLAGVAFMVLLIPLNGAVAVKMRAFQVKQMKLKDSRIKLMSEILNGIKVLKLYAWEPSFLKQVEGIRQGELQLLRTAAYLHTTTTFTWMCSPFLVTLITLWVYVYVDPNNVLDAEKAFVSVSLFNILRLPLNMLPQLISNLTQASVSLKRIQQFLSQEELDPQSVERKTISPGYAITIHSGTFTWAQDLPPTLHSLDIQVPKGALVAVVGPVGCGKSSLVSALLGEMEKLEGKVHMKGSVAYVPQQAWIQNCTLQENVLFGKALNPKRYQQTLEACALLADLEMLPGGDQTEIGEKGINLSGGQRQRVSLARAVYSDADIFLLDDPLSAVDSHVAKHIFDHVIGPEGVLAGKTRVLVTHGISFLPQTDFIIVLADGQVSEMGPYPALLQRNGSFANFLCNYAPDEDQGHLEDSWTALEGAEDKEALLIEDTLSNHTDLTDNDPVTYVVQKQFMRQLSALSSDGEGQGRPVPRRHLGPSEKVQVTEAKADGALTQEEKAAIGTVELSVFWDYAKAVGLCTTLAICLLYVGQSAAAIGANVWLSAWTNDAMADSRQNNTSLRLGVYAALGILQGFLVMLAAMAMAAGGIQAARVLHQALLHNKIRSPQSFFDTTPSGRILNCFSKDIYVVDEVLAPVILMLLNSFFNAISTLVVIMASTPLFTVVILPLAVLYTLVQRFYAATSRQLKRLESVSRSPIYSHFSETVTGASVIRAYNRSRDFEIISDTKVDANQRSCYPYIISNRWLSIGVEFVGNCVVLFAALFAVIGRSSLNPGLVGLSVSYSLQVTFALNWMIRMMSDLESNIVAVERVKEYSKTETEAPWVVEGSRPPEGWPPRGEVEFRNYSVRYRPGLDLVLRDLSLHVHGGEKVGIVGRTGAGKSSMTLCLFRILEAAKGEIRIDGLNVADIGDPILFSGTLRMNLDPFGSYSEEDIWWALELSHLHTFVSSQPAGLDFQCSEGGENLSVGQRQLVCLARALLRKSRILVLDEATAAIDLETDNLIQATIRTQFDTCTVLTIAHRLNTIMDYTRVLVLDKGVVAEFDSPANLIAARGIFYGMARDAGLA
- Km [1]: 776 µM
- Km [2]: 5.7 µM
- Km [3]: 5.3 µM
- Km [4]: 25.6 µM
- Km [5]: 248 µM
